{"source": "paper PMC3602377", "about": "“Steady-State NTPase Activity of Dengue Virus NS3: Number of Catalytic Sites, Nucleotide Specificity and Activation by ssRNA”", "target": "NS3h (NS3 helicase domain) (Dengue virus serotype 2 (cDNA of …, UniProt O09234 1646-2093))", "experiment": "fluorescence intensity titration (ex 495 nm, em 525-570 nm), 1:1 single-site fit; 1.5 mM free Mg2+; no ATP stated; constant printed as 'K' in nM, subscript lost, read as Kd", "conditions": "protein: recombinant; tags: N-terminal His6 (pET-28a); label: 5'-fluorescein", "data": [{"binder": "AGUUGAGUUG (ssRNA)", "note": "[fluorescein-labeled 10-nt ssRNA]", "values": [{"measurement": "Kd", "value": "0.75 ± 0.08", "unit": "nM"}]}]}
